Results taken from US20260167731A1 (DOMAIN THERAPEUTICS, published 2026).
“And” between values parts separate entries of the source, which are not always exact repeats. Equal entries are not always repeated.

Assays:
[1] = molecular target: T1, CD20 (on B cells) (human, UniProt P11836); test: flow cytometry on PBMC of healthy donors, B cell gate (CD3-CD19+), % of binding, mean of two donors
T1 construct: native on the surface of B cells (CD3-CD19+) in PBMC of healthy donors; the sheet names the cell type only
T1 sequence (single chain, looked up): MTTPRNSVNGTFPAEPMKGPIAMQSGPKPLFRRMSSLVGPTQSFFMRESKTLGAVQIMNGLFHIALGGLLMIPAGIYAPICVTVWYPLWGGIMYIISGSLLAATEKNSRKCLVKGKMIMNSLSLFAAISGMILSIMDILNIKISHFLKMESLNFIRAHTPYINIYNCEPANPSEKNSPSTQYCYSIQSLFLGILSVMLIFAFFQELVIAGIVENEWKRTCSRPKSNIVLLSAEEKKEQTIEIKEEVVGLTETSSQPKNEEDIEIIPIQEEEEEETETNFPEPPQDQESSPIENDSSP

[2] = molecular target: T2, human CCR8 (human, UniProt P51685 1-355); test: cell-based or functional assay
[3] = molecular target: T3, hCCR8 SNAP-tag (human, UniProt P51685 1-355, SNAP-tag labelled with Lumi4-Terbium); test: HTRF Tag-lite, inhibition of hCCL1-AF647 binding to SNAP-tag hCCR8 on HEK-293
T3 construct: also called human CCR8 engineered with a SNAP-tag at the N-terminus; not shown: SNAP-tag at the N-terminus
Method: The inhibition of CCL1 binding to hCCR8 was evaluated with the Tag-Lite® technology from Cisbio (Revvity). Human CCR8 is engineered with a SNAP-tag at the N-terminus of the GPCR. hCCR8 SNAP-tag is transiently transfected on HEK-293 cell line using FuGene® (Promega, Madison, WI, USA). 48 hours after transfection, cells are labeled with the substrate Lumi4-Terbium® (Cisbio, Codolet, France) which covalently reacts with the SNAP-tag, for 1 h at 37° C. […] The Kd is previously obtained in a saturation binding assay on the same cells. […] The plate is next incubated at 21° C. for 2 h. Detection of HTRF signal is performed on the multiplate reader EnVision (PerkinElmer, Waltham, MA, USA). The HTRF (665/620) ratio is calculated by EnVision software, the data exported are considered as the total binding. The specific binding is calculated then by subtracting the non-specific signal from the total binding. The Ki and IC₅₀are calculated using the “One site—Fit Ki” and “One site—FitlogIC50” from GraphPad Prism 9 (Graphpad Software, San Diego, CA, USA), respectively.

[4] = molecular target: T2, human CCR8; test: cell-based or functional assay; remark: listed apart in the source
[5] = molecular target: T2, human CCR8; test: cell-based or functional assay; remark: listed apart in the source
[6] = molecular target: pm2, modified CCR8 related peptide (human, sulfated tyrosine at Y16); test: ELISA on coated CCR8 peptide (500 ng/mL), OD [cont.]
Sequence of pm2, modified CCR8 related peptide (human, sulfated tyrosine at Y16) (peptide, as listed by the source): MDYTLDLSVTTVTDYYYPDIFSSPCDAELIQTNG
How it was run: (§1)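 OD after 15 min TMB development reflects binding of each anti-CCR8 mAb, tested at 1 μg/mL and diluted 1/10, to CCR8-related peptides adsorbed at 500 ng/mL from carbonate/bicarbonate buffer. Antibody incubation lasted 90 min at room temperature.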

[7] = molecular target: pm8, modified CCR8 related peptide (human, sulfated tyrosines at Y15, Y16 and Y17); test: as above
Sequence of pm8, modified CCR8 related peptide (human, sulfated tyrosines at Y15, Y16 and Y17) (peptide, as listed by the source): as above
How it was run: as §1

[8] = molecular target: pm5, modified CCR8 related peptide (human, sulfated tyrosines at Y15 and Y17); test: as above
Sequence of pm5, modified CCR8 related peptide (human, sulfated tyrosines at Y15 and Y17) (peptide, as listed by the source): as above
How it was run: as §1

[9] = molecular target: pm1, modified CCR8 related peptide (human, sulfated tyrosine at Y15); test: as above
Sequence of pm1, modified CCR8 related peptide (human, sulfated tyrosine at Y15) (peptide, as listed by the source): as above
How it was run: as §1

[10] = molecular target: pm4, modified CCR8 related peptide (human, sulfated tyrosines at Y15 and Y16); test: as above
Sequence of pm4, modified CCR8 related peptide (human, sulfated tyrosines at Y15 and Y16) (peptide, as listed by the source): as above
How it was run: as §1

[11] = molecular target: T4, pwt1, unmodified CCR8 related peptide (human, none (non-sulfated Y15, Y16, Y17)); test: as above
T4 construct: First 34 amino acids of human CCR8, synthetic; also called unmodified peptide
T4 sequence (peptide, as listed by the source): as above
How it was run: as §1

[12] = molecular target: pm3, modified CCR8 related peptide (human, sulfated tyrosine at Y17); test: as above
Sequence of pm3, modified CCR8 related peptide (human, sulfated tyrosine at Y17) (peptide, as listed by the source): as above
How it was run: as §1

[13] = molecular target: pm6, modified CCR8 related peptide (human, sulfated tyrosines at Y16 and Y17); test: as above
Sequence of pm6, modified CCR8 related peptide (human, sulfated tyrosines at Y16 and Y17) (peptide, as listed by the source): as above
How it was run: as §1

[14] = molecular target: T2, human CCR8; test: cell-based or functional assay; remark: listed apart in the source
[15] = molecular target: T2, human CCR8; test: flow cytometry, HUT78 cells (endogenous CCR8)
Method: The same staining protocol was applied on human CCR8 transfected CHO cell line versus wild type CHO cell line, cutaneous T cell lymphoma HUT78 cell line and human activated T cell model.
Briefly, 1·10⁵ cells per well in a 96 well plate were incubated with a dilution of unconjugated anti-CCR8 mAb at 10 μg/mL then diluted at 1/3.33, 4 dilution points (during 30 min at 4° C.). In human activated T cells model, prior to mAb incubation, cells were first incubated with 200 nM of hCCL1 (R&D Systems, Minneapolis, MN, USA) or buffer PBS (Invitrogen by Thermofisher Scientific, Illkirch-Graffenstaden, France) supplemented by 2% Fetal Bovine Serum (Invitrogen by Thermofisher Scientific, Illkirch-Graffenstaden, France) and 2 mM EDTA (Invitrogen by Thermofisher Scientific, Illkirch-Graffenstaden, France) during 1 hour at 4° C. To determine EC50 value, 8 concentrations of anti-CCR8 mAb were tested. Unbound antibodies were washed away with PBS (Invitrogen by Thermofisher Scientific, Illkirch-Graffenstaden, France) supplemented by 2% Fetal Bovine Serum (Invitrogen by Thermofisher Scientific, Illkirch-Graffenstaden, France) and 2 mM EDTA (Invitrogen by Thermofisher Scientific, Illkirch-Graffenstaden, France). Subsequently, cells are centrifuged (5 min at 400 g) and bound antibody is detected with F(ab′)₂-Goat anti-Mouse IgG (H+L) Cross-Adsorbed Secondary Antibody, Alexa Fluor 488 (dilution 1/500) (Invitrogen by Thermofisher Scientific, Illkirch-Graffenstaden, France) or with F(ab′)₂-Goat anti-Human IgG Fc Secondary Antibody, PE (Invitrogen by Thermofisher Scientific, Illkirch-Graffenstaden, France) (dilution 1/1000) at 4° C. for 30 min. Detection reagent is washed away and cells are centrifuged (5 min at 400 g) and resuspended in 30 μL PBS. Bound detection antibody is quantified on a MacsQuant16 (Miltenyi, Gladbach, Germany) (B1 or B2 channel, 5000 events per acquisition). During the experiment, the respective isotype mAb controls (mouse IgG1, mouse IgG2a, mouse IgG2b, mouse IgG3 or human IgG1) (Biolegend, Amsterdam, The Netherlands) are included to exclude any unspecific binding events.
EC50 values were determined via nonlinear fit “log(agonist)vs.response−Variable slope (four parameters)” function of Graphpad prism. EC50 values were not constantly determined in the same experiments.

[16] = molecular target: T2, human CCR8; test: cell-based or functional assay; remark: listed apart in the source

B1: Rituximab (antibody, V domains shown)
VH: QVQLQQPGAELVKPGASVKMSCKASGYTFTSYNMHWVKQTPGRGLEWIGAIYPGNGDTSYNQKFKGKATLTADKSSSTAYMQLSSLTSEDSAVYYCARSTYYGGDWYFNVWGAGTTVTVSA
VL: QIVLSQSPAILSASPGEKVTMTCRASSSVSYIHWFQQKPGSSPKPWIYATSNLASGVPVRFSGSGSGTSYSLTISRVEAEDAATYYCQQWTSNPPTFGGGTKLEIK
[1]
  EC50 (read off the curve): ~0.1 µg/mL

B2: humanized anti-CCR8 mAb 2-13 (antibody, human IgG1, kappa)
heavy: not shown
light: DIVMTQAAPSLSVTPGESASISCTSSKSLLHSNGNTYLYWFLQKPGQSPQLLIYRMSNLASGVPDRFSGSGSGTAFTLKISRVEAEDVGVYYCMQHREYPFTFGSGTKLEIKRTVAAPSVFIFPPSDEQLKSGTASVVCLLNNFYPREAKVQWKVDNALQSGNSQESVTEQDSKDSTYSLSSTLTLSKADYEKHKVYACEVTHQGLSSPVTKSFNRGEC
notes: Humanized, human IgG1 allotype G1m17 Fc with the terminal lysine deleted and the SDIE mutations
[2]
  hCCL1 (100 nM) residual response in %, Protocol #2, mAb 0.08 µg/mL ([…] nM): 74%
  hCCL1 (100 nM) residual response in %, Protocol #2, mAb 0.4 µg/mL (2.67 nM): 54%
  hCCL1 (100 nM) residual response in %, Protocol #2, mAb 10 µg/mL (66.7 nM): 40%
  hCCL1 (100 nM) residual response in %, Protocol #3, mAb 0.05 µg/mL (0.33 nM): 89%
  hCCL1 (100 nM) residual response in %, Protocol #3, mAb 0.5 µg/mL (3.33 nM): 63%
  hCCL1 (100 nM) residual response in %, Protocol #3, mAb 5 µg/mL (33.3 nM): 51%
[3]
  IC50: 0.09 µg/mL and 0.6 nM
  Ki: 0.05 µg/mL and 0.3 nM
[4]
  ADCC EC50, HUT78 targets, NK cells Donor 1: 6.43 pM
  ADCC EC50, HUT78 targets, NK cells Donor 2: 2.16 pM
[5]
  IC50, CCL1 induced hCCR8 Gi2 signaling (BRET, HEK-293): 0.035 µg/mL and 0.232 nM
[6]
  binding result: binds
[7]
  binding result: binds
[8]
  binding result: binds
[9]
  binding result: binds
[10]
  binding result: binds
[11]
  binding result: binds
[12]
  binding result: binds
[13]
  binding result: binds
[14]
  IC50, CCL1 induced hCCR8 Gi2 signaling (BRET) at pH 6.5: 0.025 µg/ml and 0.165 nM
  IC50, CCL1 induced hCCR8 Gi2 signaling (BRET) at pH 7.4: 0.035 µg/ml and 0.232 nM
[15]
  % of labelled cells: 32%
[16]
  ADCP % Max of phagocytosis, HUT78 targets, monocyte-derived macrophages Donor 9: 9.65%

B3: afucosylated humanized anti-CCR8 mAb 2-16 (antibody, human IgG1, kappa)
heavy: not shown
light: B2 light
modifications: afucosylated Fc glycan
notes: Same chains as 2-13, produced with 2-deoxy-2-fluoro-L-fucose (afucosylated)
[4]
  ADCC EC50, HUT78 targets, NK cells Donor 1: 2.24 pM
  ADCC EC50, HUT78 targets, NK cells Donor 2: 0.42 pM
[15]
  % of labelled cells: 34%
  EC50: 400 pM
  MFI fold change to isotype ctrl: 2.5 fold
[16]
  ADCP % Max of phagocytosis, HUT78 targets, monocyte-derived macrophages Donor 9: 8.29%
